This passage reports IC50 for Aβ production on co-incubation of purified β-CTF and γ-secretase with a concentration series of ApoE2 (ELISA) and half-inhibitory concentration (IC50) for Aβ40 production from purified β-CTF by purified γ-secretase (ELISA) results from patent US20250108100A1, “C-TERMINAL FRAGMENT OF APOLIPOPROTEIN E AND APPLICATION THEREOF IN INHIBITING y-SECRETASE ACTIVITY” (SYNPHATEC (SHANGHAI) BIOPHARMACEUTICAL TECHNOLOGY CO., LTD., priority 2022, published 2025).

The target of this assay is purified human γ-secretase (NCT-V5-6×His; FLAG-PEN2; APH; PS1) (human) (UniProt Q92542). In words: cell-based or functional assay.

Sequence of ApoE2-3×FLAG (purified) (P02649 19-317 R176C): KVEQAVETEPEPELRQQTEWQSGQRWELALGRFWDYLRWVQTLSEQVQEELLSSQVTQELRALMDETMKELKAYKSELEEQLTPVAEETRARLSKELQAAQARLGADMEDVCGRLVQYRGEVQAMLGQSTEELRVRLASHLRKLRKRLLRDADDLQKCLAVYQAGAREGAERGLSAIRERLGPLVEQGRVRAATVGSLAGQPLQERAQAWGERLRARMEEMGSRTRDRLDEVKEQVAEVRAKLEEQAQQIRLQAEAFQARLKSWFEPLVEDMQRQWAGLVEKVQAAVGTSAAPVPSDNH

As to “ApoE2-3×FLAG (purified) (from UniProt P02649 19-317)”, the IC50 for Aβ production on co-incubation of purified β-CTF and γ-secretase with a concentration series of ApoE2 (ELISA) was determined as 1.2 µM; the half-inhibitory concentration (IC50) for Aβ40 production from purified β-CTF by purified γ-secretase (ELISA) was 1.2 µM.
